Test results published in patent US20090155873A1, “BIOFUEL PRODUCTION” (BIO ARCHITECTURE LAB, INC., priority 2007, published 2009).
Values belong to the molecule of their own block, whether it stands above or below them.

Columns and labels:
[1] = Sequential reaction of diol dehydrogenase and diol dehydratase on butyroin (GC-MS); format: biochemical; details: 37° C., 40 hours, NADH, coenzyme B12, GC-MS, FIGS. 26-27
Protocol: Diol dehydrogenase ddh from Klebsiella pneumoniae MGH 78578 and diol dehydratase pduCDE from Klebsiella pneumoniae MGH 78578 were cloned into a bacterial expression vector and expressed and purified on a Ni-NTA column, as described in Example X except that 1 mM of 1,2-propanediol was added at all time during the expression and purification of diol dehydratase. The large, medium, and small subunits of the pduCDE polypeptide are encoded by the nucleotide sequences of SEQ ID NOs:103, 105, and 107, respectively, and the polypeptide sequence are set forth in SEQ ID NOs: 104, 106, and 108, respectively.
The ddh3 and pduCDE polypeptides were incubated with butyroin and their appropriate cofactors, then assayed using gas chromatography-mass spectrometry (GC-MS) for their ability to perform sequential reactions resulting in the product 4-octanone. The reaction mixture was incubated at 37° C. for 40 hours in a 0.6 mL eppendorf tube with minimal head space. The reaction product was extracted with an equivalent volume of ethyl acetate, stored in a glass vial, and sent to Thermo Fischer Scientific Instruments Division for compositional analysis by GC-MS.

[2] = TBA assay for secreted alginate lyase; format: cell-based; details: BL21 cells, LB+2% alginate+0.1 mM IPTG, overnight culture media, FIG. 47
Protocol: The Vs24254 (SEQ ID NO: 32) region of Vibro spendidus encodes a functional external alginate lyase. BL21 cells expressing Vs24254 from the pET28 vector were capable of breaking down alginate in the growth medium. […] This assay was performed by spinning down an overnight culture grown on the above mentioned media. The media was then mixed in a 1:1 ratio with 0.8% thiobarbituric acid (TBA), heated for 10 min at 99 degrees Celsius, and assayed for pink coloration. […] Wildtype E. coli cells not expressing any recombinant proteins show the same coloration as the negative control Vs24259 (data not shown).

[3] = Kinetic testing of oxidation and reduction reactions with 2ADH-16; format: biochemical; details: 0.04 mg/mL enzyme, pH 6.5(red) or 9.0(ox), 25 C, FIGS. 35 and 36
Protocol: Similar to above, kinetic testing for both oxidation and reduction reactions was performed on various substrates using 2ADH-16. The conditions for these studies were as follows: 0.04 mg/mL enzyme, 0.25 mg/mL cofactor, 20 mM Tris HCl Buffer pH 6.5(red) or 9.0(ox), T=25 C, 100 uL total volume was used.

[4] = NADH Production Assay (oxidation of 4-octanol); format: biochemical; details: NAD+, 30° C., FIG. 30A
Protocol: Various secondary alcohol dehydrogenases (2ADHs) were isolated from Pseudomonas putida KT2440, Pseudomonas fluorescens Pf-5, and Klebsiella pneumoniae MGH 78578. All vectors were transformed in BL21(DE3) competent cells and expression of the genes encoding the proteins of interest was induced with IPTG (via the T7 promoter). The cells were lysed, proteins were extracted and then purified on Ni-NTA columns. Final protein concentration in the Ni-NTA eluate was diluted to 0.15 mg/mL prior to assays.
[…] consumption and production assays were performed using a THERMOmax microplate reader in the kinetic mode, monitoring the NADPH absorbance peak at 340 nm until the reaction reached equilibrium. […] These reaction conditions are found in Table 4 below.

B2: Vs24259: putative protein of Vibrio splendidus similar to an alginate lyase, SEQ ID NO:34; negative control (protein, listed as Vibrio splendidus)
chain: MKQITLKTLLASSILLAVGCASTSTPTADFPNNKETGEALLTPVAVSASSHDGNGPDRLVDQDLTTRWSSAGDGEWATLDYGSVQEFDAVQASFSKGNQRQSKFDIQVSVDGESWTTVLENQLSSGKAIGLERFQFEPVVQARYVRYVGHGNTKNGWNSVTGLAAVNCSINACPASHIITSDVVAAEAVIIAEMKAAEKARKDARKDLRSGNFGVAAVYPCETTVECDTRSALPVPTGLPATPVAGNSPSENFDMTHWYLSQPFDHDKNGKPDDVSEWNLANGYQHPEIFYTADDGGLVFKAYVKGVRTSKNTKYARTELREMMRRGDQSISTKGVNKNNWVFSSAPESDLESAAGIDGVLEATLKIDHATTTGNANEVGRFIIGQIHDQNDEPIRLYYRKLPNQETGAVYFAHESQDATKEDFYPLVGDMTAEVGDDGIALGEVFSYRIDVKGNTMTVTLIREGKDDVVQVVDMSNSGYDAGGKYMYFKAGVYNQNISGDLDDYSQATFYQLDVSHDQYKK
TBA assay result (cleavage of alginate in growth medium) [2]: little or no cleavage of the alginate polymer has occurred

B4: Vs24254: functional external alginate lyase of Vibrio splendidus, SEQ ID NO:32 (protein, listed as Vibrio splendidus)
chain: MNKPIFVVVLASLTYGCGGSSSSDSSDPSDTNNSGASYGVVAPYDIAKYQNILSSSDLQVSDPNGEEGNKTSEVKDGNFDGYVSDYFYADEETENLIFKMANYKMRSEVREGENFDINEAGVRRSLHAEISLPDIEHVMASSPADHDEVTVLQIHNKGTDESGTGYIPHPLLRVVWEQERDGLTGHYWAVMKNNAIDCSSAADSSDCYATSYNRYDLGEADLDNFTKFDLSVYENTLSIKVNDEVKVDEDITYWQHLLSYFKAGIYNQFENGEATAHFQALRYTTTQVNGSNDWDINDWKLTIPASKDTWYGSGGDSAAELEPERCESSKDLLANDSDVYDSDIGLSYFNTDEGRVHFRADMGYGTSTENSSYIRSELRELYQSSVQPDCSTSDEDTSWYLDDTRTNATSHELTASLRIEDYPNINNQDPKVVLGQIHGWKINQALVKLLWEGESKPVRVILNSDFERNNQDCNHCDPFSVELGTYSASEEWRYTIRANQDGIYLATHDLDGTNTVSHLIPWGQDYTDKDGDTVSLTSDWTSTDIAFYFKAGIYPQFKPDSDYAGEVFDVSFSSLRAEHN
TBA assay result (cleavage of alginate in growth medium) [2]: positive TBA assay result of pink color

B5: 2ADH-16: secondary alcohol dehydrogenase isolated from Klebsiella pneumoniae subsp. pneumoniae MGH 78578, SEQ ID NO:138 (protein)
chain: MTAFHNKSVLVLGGSRGIGAAIVRRFVADGASVVFSYSGSPEAAERLAAETGSTAVQADSADRDAVISLVRDSGPLDVLVVNAGIALFGDALEQDSDAIDRLFHINIHAPYHASVEAARRMPEGGRIIVIGSVNGDRMPLPGMAAYALSKSALQGLARGLARDFGPRGITVNVVQPGPIDTDANPENGPMKELMHSFMAIKRHGRPEEVAGMVAWLAGPEASFVTGAMHTIDGAFGA
modifications: Klebsiella pneumoniae subsp. pneumoniae MGH78578
oxidation and reduction of various substrates [3]: capable of catalyzing both the oxidation and reduction of a wide variety of substrates

B6: 2ADH-2: secondary alcohol dehydrogenase isolated from Pseudomonas putida KT2440, SEQ ID NO:112 (protein)
chain: MSMTFSGQVALVTGAGAGIGRATALAFAHEGMKVVVADLDPVGGEATVAQIHAAGGEALFIACDVTRDAEVRQLHERLMAAYGRLDYAFNNAGIEIEQHRLAEGSEAEFDAIMGVNVKGVWLCMKYQLPLLLAQGGGAIVNTASVAGLGAAPKMSIYSASKHAVIGLTKSAAIEYAKKGIRVNAVCPAVIDTDMFRRAYQADPRKAEFAAAMHPVGRIGKVEEIASAVLYLCSDGAAFTTGHCLTVDGGATAI
modifications: Pseudomonas putida KT2440
oxidation of 4-octanol measured by NADH production [4]: catalyzes the oxidation of 4-octanol in the presence of NAD+

Continued, values first:

product formed from butyroin by sequential reactions [1]: 4-octanone was produced from butyroin
B1: pduCDE: diol dehydratase from Klebsiella pneumoniae MGH 78578, subunits SEQ ID NOs:104, 106, 108 (protein)
chain 1: MRSKRFEALAKRPVNQDGFVKEWIEEGFIAMESPNDPKPSIRIVNGAVTELDDKPVEQFDLIDHFIARYGINLARAEEVMAMDSVKLANMLCDPNVKRSDIVPLTTAMTPAKIVEVVSHMNVVEMMMAMQKMRARRTPSQQAHVTNIKDNPVQIAADAAEGAWRGFDEQETTVAVARYAPFNAIALLVGSQVGRPGVLTQCSLEEATELKLGMLGHTCYAETISVYGTEPVFTDGDDTPWSKGFLASSYASRGLKMRFTSGSGSEVQMGYAEGKSMLYLEARCIYITKAAGVQGLQNGSVSCIGVPSAVPSGIRAVLAENLICSALDLECASSNDQTFTHSDMRRTARLLMQFLPGTDFISSGYSAVPNYDNMFAGSNEDAEDFDDYNVIQRDLKVDGGLRPVREEDVIAIRNKAARALQAVFAGMGLPPITDEEVEAATYAHGSKDMPERNIVEDIKFAQEIINKNRNGLEVVKALAKGGFPDVAQDMLNIQKAKLTGDYLHTSAIIVGEGQVLSAVNDVNDYAGPATGYRLQGERWEEIKNIPGALDPNELG
chain 2: MEINETLLRQIIEEVLSEMKSGADKPVSFSAPAASVASAAPVAVAPVSGDSFLTEIGEAKPGTQQDEVIIAVGPAFGLAQTANIVGIPHKNILREVIAGIEEEGIKARVIRCFKSSDVAFVAVEGNRLSGSGISIGIQSKGTTVIHQRGLPPLSNLELFPQAPLLTLETYRQIGKNAARYAKRESPQPVPTLNDQMARPKYQAKSAILHIKETKYVVTGKNPQELRVAL
chain 3: MNTDAIESMVRDVLSRMNSLQDGITPAPAAPTNDTVRQPKVSDYPLATRHPEWVKTATNKTLDDLTLENVLSDRVTAQDMRITPETLRMQAAIAQDAGRDRLAMNFERAAELTAVPDDRILEIYNALRPYRSTQAELLAIADDLEHRYQARLCAAFVREAAGLYIERKKLKGDD
modifications: Klebsiella pneumoniae MGH78578

product formed from butyroin by sequential reactions [1]: 4-octanone was produced from butyroin
B3: ddh3: diol dehydrogenase isolated from Klebsiella pneumoniae MGH78578, SEQ ID NO:102 (protein)
chain: MKKVALVTGAGQGIGKAIALRLVKDGFAVAIADYNDATAKAVASEINQAGGHAVAVKVDVSDRDQVFAAVEQARKTLGGFDVIVNNAGVAPSTPIESITPEIVDKVYNINVKGVIWGIQAAVEAFKKEGHGGKIINACSQAGHVGNPELAVYSSSKFAVRGLTQTAARDLAPLGITVNGYCPGIVKTPMWAEIDRQVSEAAGKPLGYGTAEFAKRITLGRLSEPEDVAACVSYLASPDSDYMTGQSLLIDGGMVFN
modifications: Klebsiella pneumoniae MGH78578
